Laboratory results reported in US20090137002A1 (published 2009).

How the values were obtained:
[1] = molecular target: T1, recombinant human EphB4-Fc fusion protein (human, UniProt P54760 16-539); assay: ELISA: biotinylated mEphrinB2 (250 ng/mL) on coated hEphB4, with or without 100 µg/mL anti-EphB4 Fab
T1 construct: extracellular domain; also called hEphB4; hu EphB4-Fc
T1 sequence (looked up): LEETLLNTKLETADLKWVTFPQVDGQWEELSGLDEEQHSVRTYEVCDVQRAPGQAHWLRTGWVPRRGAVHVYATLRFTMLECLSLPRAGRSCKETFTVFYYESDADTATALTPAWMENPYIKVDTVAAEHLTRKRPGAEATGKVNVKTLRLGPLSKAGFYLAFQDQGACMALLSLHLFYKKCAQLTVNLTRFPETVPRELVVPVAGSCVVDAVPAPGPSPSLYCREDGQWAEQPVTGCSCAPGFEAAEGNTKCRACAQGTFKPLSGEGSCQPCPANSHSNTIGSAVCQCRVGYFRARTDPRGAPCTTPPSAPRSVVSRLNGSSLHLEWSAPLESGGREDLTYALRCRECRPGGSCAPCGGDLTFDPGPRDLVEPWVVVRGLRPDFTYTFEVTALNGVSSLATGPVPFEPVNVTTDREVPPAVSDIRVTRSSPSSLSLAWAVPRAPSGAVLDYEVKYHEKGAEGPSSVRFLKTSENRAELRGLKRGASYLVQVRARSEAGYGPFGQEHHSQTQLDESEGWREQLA
Protocol: (§1) A 96-well plate was coated with recombinant mEphB3, mEphA4 and hEphB4 in PBS o/n at 4° C. (5 μg/mL; 100 μL/well). The next day, the antigen was discarded and the plate blocked with 3% BSA/PBS (300 μl/well) for 2 hrs at room temperature (RT). Blocking solution was discarded and anti-EphB4 Fabs were added to the wells at a concentration of 100 μg/mL in 1% BSA/PBS and incubated for 30 min at RT. Recombinant biotinylated murine EphrinB2 was added at a final concentration of 250 ng/mL and incubated at RT for a further 30 min. The plate was washed and bound EphrinB2 was detected with Streptavidin-HRP (incubation 30 min at RT) and chemifluorescent substrate.

[2] = molecular target: T2, recombinant mouse EphA4-Fc fusion protein (mouse, UniProt Q03137 20-547, limits assumed); assay: ELISA: biotinylated mEphrinB2 on coated mEphA4
T2 construct: also called mEphA4; not shown: Fc part, not described
Protocol: as §1

[3] = molecular target: T3, recombinant mouse EphB3-Fc fusion protein (mouse, UniProt P54754 30-537, limits assumed); assay: ELISA: biotinylated mEphrinB2 (250 ng/mL) on coated mEphB3, with or without 100 µg/mL anti-EphB4 Fab
T3 construct: also called mEphB3; not shown: Fc part, not described
T3 sequence (looked up): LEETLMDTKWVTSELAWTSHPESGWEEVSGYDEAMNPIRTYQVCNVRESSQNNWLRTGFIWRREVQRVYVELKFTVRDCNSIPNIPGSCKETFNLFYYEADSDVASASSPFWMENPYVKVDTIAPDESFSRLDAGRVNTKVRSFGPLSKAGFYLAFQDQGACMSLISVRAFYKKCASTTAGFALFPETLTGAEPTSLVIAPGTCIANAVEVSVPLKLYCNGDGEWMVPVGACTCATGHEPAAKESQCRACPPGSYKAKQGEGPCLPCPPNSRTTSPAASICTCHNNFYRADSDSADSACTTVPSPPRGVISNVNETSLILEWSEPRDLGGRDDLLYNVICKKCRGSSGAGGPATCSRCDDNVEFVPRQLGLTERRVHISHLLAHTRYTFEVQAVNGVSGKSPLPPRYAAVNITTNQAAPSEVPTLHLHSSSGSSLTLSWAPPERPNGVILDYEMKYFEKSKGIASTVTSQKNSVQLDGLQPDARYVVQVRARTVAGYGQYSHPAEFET
Protocol: as §1

[4] = molecular target: T4, myc-tagged human EphB4 on transfected CHO cells (human, UniProt P54760 16-987); assay: FACS, IgG4-Pro inhibition of murine ephrin-B2 binding to CHO-EphB4 cells
T4 construct: whole, on cells; also called CHO-EphB4; CHO-hEphB4; not shown: myc tag
T4 sequence (looked up): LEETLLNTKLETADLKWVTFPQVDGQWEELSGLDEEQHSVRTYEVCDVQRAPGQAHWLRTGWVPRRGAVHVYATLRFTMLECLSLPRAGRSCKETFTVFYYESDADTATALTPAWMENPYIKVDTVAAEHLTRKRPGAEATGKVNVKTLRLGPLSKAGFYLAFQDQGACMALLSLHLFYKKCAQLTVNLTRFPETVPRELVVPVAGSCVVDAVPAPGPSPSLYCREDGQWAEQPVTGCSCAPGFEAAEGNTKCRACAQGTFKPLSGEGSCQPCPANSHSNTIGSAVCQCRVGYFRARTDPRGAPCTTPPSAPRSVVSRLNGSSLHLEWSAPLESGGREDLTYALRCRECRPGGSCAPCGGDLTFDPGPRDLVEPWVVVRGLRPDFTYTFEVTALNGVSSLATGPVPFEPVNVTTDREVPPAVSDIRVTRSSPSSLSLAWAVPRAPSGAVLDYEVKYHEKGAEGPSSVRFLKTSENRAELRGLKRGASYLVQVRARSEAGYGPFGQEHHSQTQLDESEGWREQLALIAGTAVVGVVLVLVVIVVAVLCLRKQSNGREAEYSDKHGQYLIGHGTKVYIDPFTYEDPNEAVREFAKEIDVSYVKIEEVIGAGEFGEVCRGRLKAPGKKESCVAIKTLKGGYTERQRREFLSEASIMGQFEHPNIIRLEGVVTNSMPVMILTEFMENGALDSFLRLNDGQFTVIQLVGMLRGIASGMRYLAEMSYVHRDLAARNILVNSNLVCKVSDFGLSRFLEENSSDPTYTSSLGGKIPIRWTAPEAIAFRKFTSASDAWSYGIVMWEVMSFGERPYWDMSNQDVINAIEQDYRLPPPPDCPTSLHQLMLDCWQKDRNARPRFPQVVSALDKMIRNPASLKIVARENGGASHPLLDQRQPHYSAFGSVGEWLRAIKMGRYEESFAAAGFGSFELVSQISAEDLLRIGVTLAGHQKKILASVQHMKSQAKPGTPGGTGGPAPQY
Protocol: (§2) C50 values (i.e. IgG4-Pro inhibition of ligand binding) were determined in FACS. […] Receptor-bound ephrin-B2 was detected via biotinylated anti-mouse ephrin-B2 antibody (R&D Systems) and streptavidin-PE. The IC50 values of the IgGs, determined in two independent experiments, are given in Table 11 and are compared to the IC50 values of the corresponding Fab. […] Again, as already seen for the Fab, the IC50 values of the MOR07310 pool were slightly better than those of the MOR03641 pool.

[5] = molecular target: T4, myc-tagged human EphB4 on transfected …; assay: FACS titration of IgG4-Pro on CHO-EphB4 cells; end tied by Table 11 (4.83)
Protocol: (§3) For the determination of EC50 values, the 12 final IgGs were analyzed on CHO-EphB4 cells in FACS. The EC50 values of the IgGs, determined in two independent experiments, are given in Table 11 and are compared to the EC50 values of the corresponding Fab. […] Again, as already seen for the Fab, the EC50 values of the MOR07310 pool were slightly better than those of the MOR03641 pool.

[6] = molecular target: T4, myc-tagged human EphB4 on transfected …; assay: FACS titration of IgG4-Pro on CHO-EphB4 cells
Protocol: as §3

[7] = molecular target: T4, myc-tagged human EphB4 on transfected …; assay: FACS competition on CHO-EphB4 cells, competitor murine ephrin-B2
Protocol: as §2

[8] = molecular target: T4, myc-tagged human EphB4 on transfected …; assay: FACS, IgG4-Pro inhibition of murine ephrin-B2 binding to CHO-EphB4 cells; end tied by Table 11 (11.55)
Protocol: as §2

[9] = molecular target: T4, myc-tagged human EphB4 on transfected …; assay: FACS titration of IgG4-Pro on CHO-EphB4 cells; n = 1
Protocol: as §3

T2 sequence (Q03137 20-547 limits assumed): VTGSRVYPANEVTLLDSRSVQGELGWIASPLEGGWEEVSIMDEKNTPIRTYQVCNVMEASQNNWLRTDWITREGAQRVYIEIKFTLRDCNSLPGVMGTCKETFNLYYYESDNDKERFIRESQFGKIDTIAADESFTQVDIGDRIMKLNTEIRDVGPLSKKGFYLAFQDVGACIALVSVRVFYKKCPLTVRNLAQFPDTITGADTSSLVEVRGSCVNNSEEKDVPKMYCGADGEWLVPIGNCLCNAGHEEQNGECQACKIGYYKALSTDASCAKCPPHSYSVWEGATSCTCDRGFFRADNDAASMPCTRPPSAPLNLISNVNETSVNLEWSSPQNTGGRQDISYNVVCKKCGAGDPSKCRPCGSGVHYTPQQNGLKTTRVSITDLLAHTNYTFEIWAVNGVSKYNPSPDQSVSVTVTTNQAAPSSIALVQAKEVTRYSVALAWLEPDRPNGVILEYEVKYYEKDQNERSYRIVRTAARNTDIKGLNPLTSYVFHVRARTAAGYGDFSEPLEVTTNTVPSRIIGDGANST

B1: recombinant murine EphrinB2 (extracellular domain) (ligand, mouse, UniProt P52800 29-232, looked up)
chain: RSIVLEPIYWNSSNSKFLPGQGLVLYPQIGDKLDIICPKVDSKTVGQYEYYKVYMVDKDQADRCTIKKENTPLLNCARPDQDVKFTIKFQEFSPNLWGLEFQKNKDYYIISTSNGSLEGLDNQEGGVCQTRAMKILMKVGQDASSAGSARNHGPTRRPELEAGTNGRSSTTSPFVKPNPGSSTDGNSAGHSGNNLLGSEVALFA
modifications: biotinylated in Examples 8 and 10-12
notes: extracellular domain; also called mEphrinB2; recombinant biotinylated murine EphrinB2
binding result [1]: binds | binding result [2]: no binding (tested: 250 ng/mL) | binding result [3]: binds

B2: MOR07729 IgG4-Pro (antibody, V domains shown)
VH: QVELVQSGAEVKKPGSSVKVSCKASGGTFSTYAISWVRQAPGQGLEWMGRIIPIFGTANYAQKFQGRVTITADESTSTAYMELSSLRSEDTAVYYCARSSYTILTTYYNYNAMDNWGQGTLVTVSS
VL: DIQMTQSPSSLSASVGDRVTITCRASQNINNFLNWYQQKPGKAPKLLIYGSSILQSGVPSRFSGSGSGTDFTLTISSLQPEDFATYYCQQYDFYLSGTFGQGTKVEIKR
notes: Fab MOR07729 converted into human IgG4-Pro format
IC50 [4]: 11.6 nM | EC50 [5]: 4.8 nM | EC50 [6]: 4.83 nM | EC50 (read off the curve) [6]: ~5 nM | IC50 (read off the curve) [7]: ~20 nM | IC50 [8]: 11.6 nM

B3: MOR07720 IgG4-Pro (antibody, V domains shown)
VH: QVQLVESGGGLVQPGGSLRLSCAASGFTFNNAWMSWVRQAPGKGLEWVSQIEAKQPGGATSYAASVKGRFTISRDNSKNTLYLQMNSLRAEDTAVYYCARKGMSFYNNKYAKSMFDLWGQGTLVTVSS
VL: DIELTQPPSVSVAPGQTARISCSGDNLGKKYVHWYQQKPGQAPVLVIYYDSKRPSGIPERFSGSNSGNTATLTISGTQAEDEADYYCSAWTTTMMHIVFGGGTKLTVLG
notes: Fab MOR07720 converted into human IgG4-Pro format
IC50 [4]: 0.11 nM | IC50 (read off the curve) [7]: ~0.1 nM | EC50 [9]: 0.3 nM
